Measured values published in patent US20220002407A1.

Molecular target: CD19 on CD19-positive human tumor cells (Raji, Raji-Luc, NALM6, Reh) (human) (UniProt P15391)
Assay: cell-based or functional assay

Sequence of CD19 on CD19-positive human tumor cells (Raji, Raji-Luc, NALM6, Reh) (human) (P15391 20-556): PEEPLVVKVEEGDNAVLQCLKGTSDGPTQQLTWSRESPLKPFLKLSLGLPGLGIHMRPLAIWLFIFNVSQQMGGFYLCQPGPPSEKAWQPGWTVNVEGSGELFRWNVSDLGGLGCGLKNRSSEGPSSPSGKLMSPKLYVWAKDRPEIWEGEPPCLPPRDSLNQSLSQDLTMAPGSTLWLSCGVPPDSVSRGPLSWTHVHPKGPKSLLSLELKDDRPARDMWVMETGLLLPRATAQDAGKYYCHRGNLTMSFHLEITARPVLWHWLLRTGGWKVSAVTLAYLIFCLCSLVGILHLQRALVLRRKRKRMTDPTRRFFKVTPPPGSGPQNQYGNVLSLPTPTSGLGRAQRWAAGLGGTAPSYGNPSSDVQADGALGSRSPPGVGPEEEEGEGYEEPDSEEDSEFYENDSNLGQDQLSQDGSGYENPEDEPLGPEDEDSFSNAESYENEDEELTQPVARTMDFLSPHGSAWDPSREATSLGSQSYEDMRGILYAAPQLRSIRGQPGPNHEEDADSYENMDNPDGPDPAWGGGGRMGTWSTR

“bispecific antibody blinatumomab (Blincyto, Amgen)” showed an EC50 of activation of NFAT-RE luciferase reporter Jurkat T cells in the presence of Raji target cells of 2.71 nM, an EC50 to mediate CIK to kill different tumor cells (NALM6) of 0.0773 nM and an EC50 to mediate CIK to kill different tumor cells (Reh) of 0.0119 nM. It also gave an EC50 to mediate CIK to kill tumor cells (Raji-LUC) of 0.000595 nM, an EC50 to mediate CIK to kill tumor cells (Raji-LUC, second row without label) of 0.00565 nM and an EC50 to mediate PBMCs to kill tumor cells (Raji-LUC) of 0.00545 nM. It also gave an EC50 to mediate PBMCs to kill tumor cells (Raji-LUC, second row without label) of 0.0212 nM and an EC50 to mediate PBMCs to kill tumor cells (Raji-LUC, third row without label) of 0.0226 nM.
